Residue numbers refer to the chain shown, from its start. Names may count otherwise.
B1: v34914 (trispecific antibody, human IgG1, lambda, L234A L235A)
heavy 1: not shown
heavy 2: EIVLTQSPATLSLSPGERVTMSCSASSSVSYMHWYQQKPGQAPRLWIYDTSKLASGVPARFSGSGSGTDYTLTISSVEPEDNAVYYCQQWSGHPLTFGQGTKVEIKGGGGSGGGGSGGGGSGGGGSQVQLVQSGAEVKKPGASVKISCKASGYSFTGYTMNWVRQAPGQGLEWIGLITPYSGASSYAQKFQGRATLTVDKSTSTAYMELSSLRSEDTAVYYCARGGYDGRGFDYWGQGTNVTVSSAAEPKSSDKTHTCPPCPAPEAAGGPSVFLFPPKPKDTLMISRTPEVTCVVVSVSHEDPEVKFNWYVDGVEVHNAKTKPREEQYNSTYRVVSVLTVLHQDWLNGKEYKCKVSNKALPAPIEKTISKAKGQPREPQVYVLPPSRDELTKNQVSLLCLVKGFYPSDIAVEWESNGQPENNYLTWPPVLDSDGSFFLYSKLTVDKSRWQQGNVFSCSVMHEALHNHYTQKSLSLSPG
light: NFMLTQPHSVSESPGKTVTISCKRNTGNIGSNYVNWYQQHEGSSPTTIIYRNDKRPDGVSDRFSGSIDRSSKSASLTISNLKTEDEADYFCQSYSSGFIFGGGTKLTVLGQPKAAPSVTLFPPSSEELQANKATLVCLISDFYPGAVTVAWKADSSPVKAGVETTTPSKQSNNKYAASSYLSLTPEQWKSHRSYSCQVTHEGSTVEKTVAPTECS
notes: Het Fc, FcKO; also called CD28xCD3xMSLN trispecific
B2: v34919 (bispecific antibody, human IgG1, lambda, L234A L235A)
heavy 1: not shown
heavy 2: B1 heavy 2
light: B1 light
notes: MSLN VL-VH scFv); also called anti-(MSLNxCD3) bispecific control
B3: v34916 (trispecific antibody, human IgG1, lambda, L234A L235A)
heavy 1: not shown
heavy 2: B1 heavy 2
light: NFMLTQPHSVSESPGKTVTISCKRNTGNIGSNYVNWYQQHEGSSPTTIIYRNDKRPDGVSDRFSGSIDRSSKSASLTISNLKTEDEADYFCQSYSSGFIFGGGTKLTVLGQPKAAPSVTLFPPSSEELQANKATLVCLISDFYPGAVTVAWKADSSPVKAGVETTTPSKQSNNKYAASSYLSLTPEQWKSHRSYSCQVTHEGSTVEKTVAPTECSGGGGSGDIQMTQSPSSLSASVGDRVTITCRASESVEYYVTSLMQWYQQKPGKAPKLLIYAASNVDSGVPSRFSGSGSGTDFTLTISSLQPEDIATYYCQQSRKVPFTFGGGTKVEIKGGGGSGGGGSGGGGSGGGGSQVQLQESGPGLVKPSETLSLTCAVSGFSLTSYGVHWIRQPPGKGLEWLGVIWPGGGTNFNSALMSRLTISEDTSKNQVSLKLSSVTAADTAVYYCARDRAYGNYLYAMDYWGQGTLVTVSS
notes: CD28 scFv on C-terminus of the CD3 Fab light chain; Het Fc, FcKO; also called CD3xCD28xMSLN trispecific
B4: v37687 (trispecific antibody, human IgG1, kappa, L234A L235A)
heavy 1: not shown
heavy 2: QVQLVESGGGLVQPGGSLRLSCSVSGIDLSSNPMIWVRQAPGKGLQYIGIIDTDGSTYYADWAKGRFTISKDSTTVYLQINSPRAEDTAVYYCARRLHGSSNGYYDDLWGQGTLVTVSSGGGGSGGGGSGGGGSGGGGSDGQMTQSPSSVSASVGDRVTITCQASQSIYSYLSWYQQKPGQRPKLLIYKASTLASGVPSRFSGSGSGTDFTLTISSVQPEDFATYYCQQGYTVTNVDKNTFGGGTKVEIKAAEPKSSDKTHTCPPCPAPEAAGGPSVFLFPPKPKDTLMISRTPEVTCVVVSVSHEDPEVKFNWYVDGVEVHNAKTKPREEQYNSTYRVVSVLTVLHQDWLNGKEYKCKVSNKALPAPIEKTISKAKGQPREPQVYVLPPSRDELTKNQVSLLCLVKGFYPSDIAVEWESNGQPENNYLTWPPVLDSDGSFFLYSKLTVDKSRWQQGNVFSCSVMHEALHNHYTQKSLSLSPG
light: DIQMTQSPSSLSASVGDRVTITCRASESVEYYVTSLMQWYQQKPGKAPKLLIYAASNVDSGVPSRFSGSGSGTDFTLTISSLQPEDIATYYCQQSRKVPFTFGGGTKVEIKRTVAAPSVFIFPPSDEQLKSGTASVVCLLNNFYPREAKVQWKVDNALQSGNSQESVTEQDSKDSTYSLSSTLTLSKADYEKHKVYACEVTHQGLSSPVTKSFNRGEC
notes: also called v37638 format, CD28 VH E1080K
B5: v34913 (trispecific antibody, human IgG1, kappa, L234A L235A)
heavy 1: not shown
heavy 2: B1 heavy 2
light: B4 light
notes: CD3 scFv on N-terminus of CD28 Fab; MSLN scFv-Fc; Het Fc, FcKO; also called CD3xCD28xMSLN trispecific
B6: v34927 (bispecific antibody, human IgG1, kappa, L234A L235A)
heavy 1: not shown
heavy 2: B1 heavy 2
light: B4 light
notes: MSLN VL-VH scFv); also called anti-(MSLNxCD28) bispecific control
B7: v37691 (trispecific antibody, human IgG1, kappa, L234A L235A)
heavy 1: not shown
heavy 2: B4 heavy 2
light: B4 light
notes: also called v37638 format, CD28 VH L1112aN
B8: v37689 (trispecific antibody, human IgG1, kappa, L234A L235A)
heavy 1: not shown
heavy 2: B4 heavy 2
light: B4 light
notes: also called v37638 format, CD28 VH N1111aA
B9: v37692 (trispecific antibody, human IgG1, kappa, L234A L235A)
heavy 1: not shown
heavy 2: B4 heavy 2
light: B4 light
notes: also called v37638 format, CD28 VH Y1113S
B10: v37693 (trispecific antibody, human IgG1, kappa, L234A L235A)
heavy 1: not shown
heavy 2: B4 heavy 2
light: B4 light
notes: also called v37638 format, CD28 VH Y1037A
B11: v37695 (trispecific antibody, human IgG1, kappa, L234A L235A)
heavy 1: not shown
heavy 2: B4 heavy 2
light: B4 light with N57A
notes: also called v37638 format, CD28 VL N1066A
B12: v37688 (trispecific antibody, human IgG1, kappa, L234A L235A)
heavy 1: not shown
heavy 2: B4 heavy 2
light: B4 light
notes: also called v37638 format, CD28 VH Y1110S

How the values were obtained:
[1] = target: T1, Recombinant MSLN his tag protein (R&D systems) (UniProt Q13421 296-580, limits assumed); assay: SPR Biacore T200, MSLN-his on CM5, construct flowed, 1:1 model
T1 construct: his tag; also called mesothelin

[2] = target: T2, Recombinant human CD3 epsilon/delta heterodimer, his tag protein (Acro Biosystems) (human, UniProt P07766 23-126; P04234 22-105); assay: SPR Biacore T200, CD3 e/d-his on CM5, construct injected, 1:1 model;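 further: measured at 25 °C in HEPES-buffered saline with EDTA and Tween 20 at pH 7.4, values are means of three independent runs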
T2 construct: bought

[3] = target: T3, Recombinant human/cynomolgus/rhesus macaque CD28 mouse IgG2a Fc fusion protein (Acro Biosystems) (human/cynomolgus/rhesus macaque, UniProt P10747 19-152); assay: SPR Biacore T200, CD28-mIgG2a Fc on CM5, construct injected, 1:1 model;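 further: fc fusion captured by amine coupling, run at 25 °C in HEPES buffer pH 7.4, association 140-500 s then dissociation 600-1200 s, values averaged over three independent runs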
T3 construct: bought; also called huCD28

[4] = target: T4, CD28 on primary human T cells (human, UniProt P10747 19-220); assay: cell-based or functional assay
[5] = target: T4, CD28 on primary human T cells; assay: cell-based or functional assay; remark: listed apart in the source
[6] = target: T3, Recombinant human/cynomolgus/rhesus …; assay: SPR, in-format anti-CD28 variants, huCD28

| Binder | Kd [1] | koff [1] | kon [1] | Kd [2] | koff [2] | kon [2] | Kd [3] | koff [3] | kon [3] | IC50, T cell-dependent cytotoxicity on SNU 601 [4] | Maximum Killing (%), SNU 601 [4] | IL-2 maximum cytokine, T cells alone [5] | IL-2 maximum cytokine, T cells with SNU 601 cells [5] | TNFa maximum cytokine, T cells alone [5] | TNFa maximum cytokine, T cells with SNU 601 cells [5] | Fold-change from WT [6] | Kd [6] | koff [6] | kon [6] |
| --- | --- | --- | --- | --- | --- | --- | --- | --- | --- | --- | --- | --- | --- | --- | --- | --- | --- | --- | --- |
| B1 | 5.39 nM | 0.00197 s⁻¹ | 374000 M⁻¹ s⁻¹ | 81.1 nM | 0.0191 s⁻¹ | 237000 M⁻¹ s⁻¹ | 122 nM | 0.00849 s⁻¹ | 70200 M⁻¹ s⁻¹ |  |  |  |  |  |  |  |  |  |  |
| B2 | 4.16 nM | 0.00181 s⁻¹ | 458000 M⁻¹ s⁻¹ | 50.4 nM | 0.0131 s⁻¹ | 267000 M⁻¹ s⁻¹ |  |  |  |  |  |  |  |  |  |  |  |  |  |
| B3 | 4.78 nM | 0.00181 s⁻¹ | 388000 M⁻¹ s⁻¹ | 37.2 nM | 0.0104 s⁻¹ | 291000 M⁻¹ s⁻¹ | 56.5 nM | 0.000546 s⁻¹ | 13000 M⁻¹ s⁻¹ |  |  |  |  |  |  |  |  |  |  |
| B4 |  |  |  |  |  |  |  |  |  | 0.1 pM | 88.5% | 170 pg/mL | 4140 pg/mL | 21.7 pg/mL | 412 pg/mL | 2.1 fold | 47 nM | 0.00475 s⁻¹ | 101000 M⁻¹ s⁻¹ |
| B5 | 6.49 nM | 0.00212 s⁻¹ | 340000 M⁻¹ s⁻¹ | 41.6 nM | 0.0112 s⁻¹ | 270000 M⁻¹ s⁻¹ | 45.8 nM | 0.00216 s⁻¹ | 47400 M⁻¹ s⁻¹ |  |  |  |  |  |  |  |  |  |  |
| B6 | 6.86 nM | 0.00187 s⁻¹ | 270000 M⁻¹ s⁻¹ |  |  |  | 50.7 nM | 0.00258 s⁻¹ | 50900 M⁻¹ s⁻¹ |  |  |  |  |  |  |  |  |  |  |
| B7 |  |  |  |  |  |  |  |  |  | 0.08 pM | 91% | 185 pg/mL | 3360 pg/mL | 33.6 pg/mL | 473 pg/mL | 4.9 fold | 109 nM | 0.0107 s⁻¹ | 98600 M⁻¹ s⁻¹ |
| B8 |  |  |  |  |  |  |  |  |  | 0.12 pM | 93.4% | 677 pg/mL | 3210 pg/mL | 58.9 pg/mL | 543 pg/mL | 10.8 fold | 239 nM | 0.0211 s⁻¹ | 89600 M⁻¹ s⁻¹ |
| B9 |  |  |  |  |  |  |  |  |  | 0.63 pM | 91.5% | 120 pg/mL | 2890 pg/mL | 20.2 pg/mL | 476 pg/mL | 95.1 fold | 2110 nM | 0.0613 s⁻¹ | 32200 M⁻¹ s⁻¹ |
| B10 |  |  |  |  |  |  |  |  |  | 0.13 pM | 95.3% | 104 pg/mL | 3600 pg/mL | 19.7 pg/mL | 453 pg/mL | 4.1 fold | 91.8 nM | 0.00968 s⁻¹ | 106000 M⁻¹ s⁻¹ |
| B11 |  |  |  |  |  |  |  |  |  | 0.04 pM | 89.1% | 28.9 pg/mL | 3470 pg/mL | 13 pg/mL | 404 pg/mL | 1.3 fold | 27.7 nM | 0.00266 s⁻¹ | 95100 M⁻¹ s⁻¹ |
| B12 |  |  |  |  |  |  |  |  |  | 0.18 pM | 87.8% | 279 pg/mL | 3780 pg/mL | 39.6 pg/mL | 514 pg/mL | 1.2 fold | 25.8 nM | 0.00253 s⁻¹ | 97300 M⁻¹ s⁻¹ |
